Experimental findings from patent publication US20060134736A1 are described below.

The target of the test is full-length human growth hormone receptor (stably transfected in BaF3 cells, cell line Baf-B03 B2B2) (human) (UniProt P10912). Put plainly: cell-based or functional assay.
Chain of UniProt P10912 (P10912 19-638): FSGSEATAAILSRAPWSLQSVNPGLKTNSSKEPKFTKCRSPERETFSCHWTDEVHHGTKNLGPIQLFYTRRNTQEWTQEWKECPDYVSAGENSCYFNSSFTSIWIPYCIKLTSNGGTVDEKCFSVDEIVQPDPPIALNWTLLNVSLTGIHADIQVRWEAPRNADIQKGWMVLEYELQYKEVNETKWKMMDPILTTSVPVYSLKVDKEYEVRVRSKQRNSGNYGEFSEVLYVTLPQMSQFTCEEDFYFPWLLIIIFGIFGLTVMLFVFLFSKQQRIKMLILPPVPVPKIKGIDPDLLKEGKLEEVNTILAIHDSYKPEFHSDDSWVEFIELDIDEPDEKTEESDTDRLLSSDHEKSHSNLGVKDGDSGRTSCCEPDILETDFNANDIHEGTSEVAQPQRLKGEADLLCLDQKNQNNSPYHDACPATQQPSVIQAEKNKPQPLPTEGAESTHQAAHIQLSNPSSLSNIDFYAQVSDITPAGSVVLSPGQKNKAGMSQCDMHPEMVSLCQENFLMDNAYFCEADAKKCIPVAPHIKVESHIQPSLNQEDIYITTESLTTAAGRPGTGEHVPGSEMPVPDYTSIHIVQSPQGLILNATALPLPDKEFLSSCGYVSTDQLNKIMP

Regarding “Di-PEG-hGH (two PEGs attached to one hGH molecule, Lot No BPM#04-004) (from UniProt P01241 27-217) (ligand)”, the Specific Activity (IU/mg) in the Cell Proliferation Assay was found to be 0.25 IU/mg.
In turn, “Mono-PEG-hGH (one PEG attached to one hGH molecule, Lot No BPM#04-003) (from UniProt P01241 27-217) (ligand)” came in with a Specific Activity (IU/mg) in the Cell Proliferation Assay of 0.46 IU/mg.
